Measurements taken from PMC6165294.

Key:
[1] = target: GST-fusion NaV1.1 IQ domain (amino acids 1909-1936) (human); experiment: pull-down; phosphorylation series (Figure 6, Table 3): GST-IQ on GS-4B beads as control, treated with CaMKIIT286D or with CIP, then CaM 0.07-7 uM; [Ca2+] 2 mM; two-sites Hill fit; apparent constants
[2] = target: GST-fusion NaV1.1 IQ domain dephosphorylated by CIP (human); experiment: as above
[3] = target: GST-fusion NaV1.1 IQ domain phosphorylated by CaMKII (human); experiment: as above
[4] = target: GST-fusion NaV1.1 IQ domain (amino acids 1909-1936) (human); experiment: pull-down; phosphorylation series (Figure 6, Table 3): GST-IQ on GS-4B beads as control, treated with CaMKIIT286D or with CIP, then CaM 0.07-7 uM; [Ca2+] 100 nM; two-sites Hill fit; apparent constants
[5] = target: GST-fusion NaV1.1 IQ domain dephosphorylated by CIP (human); experiment: as above
[6] = target: GST-fusion NaV1.1 IQ domain phosphorylated by CaMKII (human); experiment: as above
[7] = target: GST-fusion NaV1.1 IQ domain (amino acids 1909-1936) (human); experiment: pull-down; phosphorylation series (Figure 6, Table 3): GST-IQ on GS-4B beads as control, treated with CaMKIIT286D or with CIP, then CaM 0.07-7 uM; [Ca2+] 500 nM; two-sites Hill fit; apparent constants
[8] = target: GST-fusion NaV1.1 IQ domain dephosphorylated by CIP (human); experiment: as above
[9] = target: GST-fusion NaV1.1 IQ domain phosphorylated by CaMKII (human); experiment: as above
[10] = target: GST-fusion NaV1.1 IQ domain (amino acids 1909-1936) (human); experiment: pull-down; phosphorylation series (Figure 6, Table 3): GST-IQ on GS-4B beads as control, treated with CaMKIIT286D or with CIP, then CaM 0.07-7 uM; [Ca2+] ≈ free; two-sites Hill fit; apparent constants
[11] = target: GST-fusion NaV1.1 IQ domain dephosphorylated by CIP (human); experiment: as above
[12] = target: GST-fusion NaV1.1 IQ domain phosphorylated by CaMKII (human); experiment: as above
[13] = target: GST-fusion NaV1.1 IQ domain (amino acids 1909-1936) (human); experiment: pull-down; GST-fusion IQ or mutant (2-4 ug) immobilised on GS-4B; CaM or mutant 0.07-7.0 uM; [Ca2+] 2 mM; 150 mM NaCl, 50 mM Tris pH 8.0, 4 h at 4 C; Coomassie densitometry, one- or two-sites Hill fit; apparent constants
[14] = target: GST-fusion NaV1.1 IQ domain (amino acids 1909-1936) (human); experiment: pull-down; GST-fusion IQ or mutant (2-4 ug) immobilised on GS-4B; CaM or mutant 0.07-7.0 uM; [Ca2+] 100 nM; 150 mM NaCl, 50 mM Tris pH 8.0, 4 h at 4 C; Coomassie densitometry, one- or two-sites Hill fit; apparent constants
[15] = target: GST-fusion NaV1.1 IQ domain (amino acids 1909-1936) (human); experiment: pull-down; GST-fusion IQ or mutant (2-4 ug) immobilised on GS-4B; CaM or mutant 0.07-7.0 uM; [Ca2+] 500 nM; 150 mM NaCl, 50 mM Tris pH 8.0, 4 h at 4 C; Coomassie densitometry, one- or two-sites Hill fit; apparent constants
[16] = target: GST-fusion NaV1.1 IQ domain (amino acids 1909-1936) (human); experiment: pull-down; GST-fusion IQ or mutant (2-4 ug) immobilised on GS-4B; CaM or mutant 0.07-7.0 uM; [Ca2+] ≈ free; 150 mM NaCl, 50 mM Tris pH 8.0, 4 h at 4 C; Coomassie densitometry, one- or two-sites Hill fit; apparent constants

calmodulin (CaM), human, wild type (from UniProt P0DP23 1-149) (natural protein)
Kd2 (site 2 of the two-sites fit) [1]: 1.1 µM | Kd1 (site 1 of the two-sites fit) [2]: 0.0383 µM | Kd2 (site 2 of the two-sites fit) [2]: 2.01 µM | Kd1 (site 1 of the two-sites fit) [3]: 0.0473 µM | Kd2 (site 2 of the two-sites fit) [3]: 1.95 µM | Kd2 (site 2 of the two-sites fit) [4]: 3.09 µM | Kd1 (site 1 of the two-sites fit) [5]: 0.0365 µM | Kd2 (site 2 of the two-sites fit) [5]: 1.42 µM | Kd1 (site 1 of the two-sites fit) [6]: 0.0251 µM | Kd2 (site 2 of the two-sites fit) [6]: 3.03 µM | Kd2 (site 2 of the two-sites fit) [7]: 5.04 µM | Kd2 (site 2 of the two-sites fit) [8]: 3.95 µM | Kd1 (site 1 of the two-sites fit) [9]: 0.013 µM | Kd2 (site 2 of the two-sites fit) [9]: 8.17 µM | Kd1 (site 1 of the two-sites fit) [10]: 0.0376 µM | Kd2 (site 2 of the two-sites fit) [10]: 2.49 µM | Kd1 (site 1 of the two-sites fit) [11]: 0.0371 µM | Kd2 (site 2 of the two-sites fit) [11]: 2.03 µM | Kd1 (site 1 of the two-sites fit) [12]: 0.0361 µM | Kd2 (site 2 of the two-sites fit) [12]: 1.44 µM | Kd1 (site 1 of the two-sites fit) [13]: 0.0682 µM | Kd2 (site 2 of the two-sites fit) [13]: 0.559 µM | Kd1 (site 1 of the two-sites fit) [14]: 0.063 µM | Kd2 (site 2 of the two-sites fit) [14]: 2.91 µM | Kd1 (site 1 of the two-sites fit) [15]: 0.0433 µM | Kd2 (site 2 of the two-sites fit) [16]: 4.58 µM
